Assay results reported in patent publication US20030203372A1, “Analysis method” (priority 2000, published 2003).

B1: p1E11 (nucleic acid, listed as Homo Sapiens)
DNA: TCTCTACAAATNNCTATAACAAAACTTTTTAGGAAAGTACCACAAATATGTTAAACAGAAGAAGCAAATCTCAAATAATGTGCAAAAGCTGTGAGTTTCTTCTTACATAAAACTGGTACCTAAGCAAGTGAGGGTTCATTTTATTTTTCACTCACCAATCCCCATATCATTATACAGTAACACCATACAGCCAAAACGGCCATGATATTCCTCCCTTCTCAGCCAAAATTGGGCAAGAGAGAATGACCCTTGTAGGGGAAAAGAAACCTCTACGATAAACTGAAATGCCACCATCAGGGTTTGTTGAAACTGTAGGNACAGGGTCTACGNCTCACTTAGCTGCTAATGAGTTTCTATGGTTCCAGNTGGGGTAGTTCAAAGTA
modifications: EST array clone; misc_feature 12, 13, 317, 330, 366: n = A,T,C or G
B2: p2A24 (nucleic acid, listed as Homo Sapiens)
DNA: TTTTTTTTTATTTGGATTCTATTTATTTAAAATTAAATTCTTTGCAAAATTGAACTTCTCAACTAAAACGTGTCCATGTCAGAATTTTAACTGTTAGCAGGTAGTTTGTGGCAAAGATGGCTAAATAATGAAGCAAATTAGAATCTGTGTGTATACTAATGAGCTGCTTTTTTTCTGTTGAGACTATCATTATTTGTCTTATTACCCAAGAGGCAATTACCTGAATTTGGATGTCTGAATTATAACTTATGCAGGAATAGTTCTGTAAATACATTTAAATAAACTGTAAAGATATTTAATAAATATAGTATTTATACTAATCTGTGTGCTTCTTTTGGTTTGAATAGTAACTAAATGAGACACCAGCCCTTGACATTGAGTTTGTTGGTCACTATCAGGTCCTCATTTCCAAGCCTCCTAGTCATTCTAGCACTGATTATATGCTGCTACTTTAACTGGCTCCAGCTGCTTCACTACATCAGTTTAGCTTCCTCAGAAATTCATCAAAATGGACGGACAATTAAATGTAAATTATAGAACTTTTTCCCAGCTGAGGCTTTGCACCTTCCGTATAGTATAGAGGGAAGCTACAAAAA

Tested on: primary human cell cultures (11 cell types)
Test: Custom gene array, 11 human cell types in normoxia or hypoxia for 6 hr and 18 hr;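 as to mRNA expression level, #1 HY 18 hr: cell type #1 is adipocyte from subcutaneous adult adipose tissue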;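 as to mRNA expression level, #1 HY 6 hr: cell type #1 is adipocyte from subcutaneous adult adipose tissue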;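 as to mRNA expression level, #1 NO: cell type #1 is adipocyte from subcutaneous adult adipose tissue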;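 as to mRNA expression level, #2 HY 18 hr: cell type #2 is fetal cardiomyocyte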;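 as to mRNA expression level, #2 HY 6 hr: cell type #2 is fetal cardiomyocyte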;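 as to mRNA expression level, #2 NO: cell type #2 is fetal cardiomyocyte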;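 as to mRNA expression level, #3 HY 6 hr: cell type #3 is human umbilical vein endothelial cells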;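 as to mRNA expression level, #3 NO: cell type #3 is human umbilical vein endothelial cells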;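 as to mRNA expression level, #4 HY 18 hr: cell type #4 is adult dermal fibroblast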;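 as to mRNA expression level, #4 HY 6 hr: cell type #4 is adult dermal fibroblast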;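 as to mRNA expression level, #4 NO: cell type #4 is adult dermal fibroblast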;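 as to mRNA expression level, #6 HY 6 hr: cell type #6 is blood-derived macrophage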;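 as to mRNA expression level, #6 NO: cell type #6 is blood-derived macrophage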
Assay type: cell-based
Conditions: for mRNA expression level, #1 HY 6 hr: cell type #1, hypoxia 6 hr; for mRNA expression level, #1 HY 18 hr: cell type #1, hypoxia 18 hr; for mRNA expression level, #1 NO: cell type #1, normoxia; for mRNA expression level, #2 HY 6 hr: cell type #2, hypoxia 6 hr; for mRNA expression level, #2 HY 18 hr: cell type #2, hypoxia 18 hr; for mRNA expression level, #2 NO: cell type #2, normoxia; for mRNA expression level, #3 HY 6 hr: cell type #3, hypoxia 6 hr; for mRNA expression level, #3 HY 18 hr: cell type #3, hypoxia 18 hr; for mRNA expression level, #3 NO: cell type #3, normoxia; for mRNA expression level, #4 HY 6 hr: cell type #4, hypoxia 6 hr; for mRNA expression level, #4 HY 18 hr: cell type #4, hypoxia 18 hr; for mRNA expression level, #4 NO: cell type #4, normoxia; for mRNA expression level, #5 HY 6 hr: cell type #5, hypoxia 6 hr; for mRNA expression level, #5 NO: cell type #5, normoxia; for mRNA expression level, #6 HY 6 hr: cell type #6, hypoxia 6 hr; for mRNA expression level, #6 NO: cell type #6, normoxia
Procedure: Equivalent cultures of non-immortalized, non-transformed primary human cells of 10 distinct types, were cultured in either normoxia or were exposed to hypoxia for 6 hr and 18 hr, and gene expression changes were determined. […] Moreover, unlike the vast majority of information in the public domain relating to genes responsive to hypoxia, all of these cells were human and were cultured without any modifications following isolation from the human donors.
A non-primary cell type (#9) was used to represent neurons, since primary human neurons are difficult to source. Therefore a total of 11 cell types are compared. It should be noted that RNA from hepatocytes at the […] timepoint of hypoxia was not available for this work.
Each RNA sample was hybridised to duplicate or triplicate arrays, to ensure reproducible data, and was analysed using GeneSpring software. Data from replicate arrays were merged during analysis to generate mean values. Data normalisation was achieved per-array using the aforementioned list of control genes, such that differences in RNA labelling or hybridization due to experimental variation were corrected by referencing each gene to the mean value of the reference genes on the same array. Also, for each gene, expression values were obtained which represent the value in each experimental condition (e.g. macrophages 6 hr hypoxia) as compared to the median of value of that gene throughout the full range of experimental conditions (i.e. from all cell types). […] This is common in microarray data analysis.

Molecule	mRNA expression level, #1 HY 6 hr	mRNA expression level, #1 HY 18 hr	mRNA expression level, #1 NO	mRNA expression level, #2 HY 6 hr	mRNA expression level, #2 HY 18 hr	mRNA expression level, #2 NO	mRNA expression level, #3 HY 6 hr	mRNA expression level, #3 HY 18 hr	mRNA expression level, #3 NO	mRNA expression level, #4 HY 6 hr	mRNA expression level, #4 HY 18 hr	mRNA expression level, #4 NO	mRNA expression level, #5 HY 6 hr	mRNA expression level, #5 NO	mRNA expression level, #6 HY 6 hr	mRNA expression level, #6 NO	other results
B1	1.12	0.87	1.36	2.86	3.03	2.09	0.91	0.88	0.74	0.59	0.79	0.89	2.09	0.77	2.97	2.76	#6 HY 18 hr (mRNA expression level) (cell type #6, hypoxia 18 hr): 2.90; #7 HY 6 hr (mRNA expression level) (cell type #7, hypoxia 6 hr): 0.64; #7 HY 18 hr (mRNA expression level) (cell type #7, hypoxia 18 hr): 0.34; #7 NO (mRNA expression level) (cell type #7, normoxia): 0.63; #8 HY 6 hr (mRNA expression level) (cell type #8, hypoxia 6 hr): 1.47; #8 HY 18 hr (mRNA expression level) (cell type #8, hypoxia 18 hr): 1.35; #8 NO (mRNA expression level) (cell type #8, normoxia): 0.64; #9 HY 6 hr (mRNA expression level) (cell type #9, hypoxia 6 hr): 1.16; #9 HY 18 hr (mRNA expression level) (cell type #9, hypoxia 18 hr): 0.64; #9 NO (mRNA expression level) (cell type #9, normoxia): 1.18; #10 HY 6 hr (mRNA expression level) (cell type #10, hypoxia 6 hr): 0.79; #10 HY 18 hr (mRNA expression level) (cell type #10, hypoxia 18 hr): 0.88; #10 NO (mRNA expression level) (cell type #10, normoxia): 0.74; #11 HY 6 hr (mRNA expression level) (cell type #11, hypoxia 6 hr): 2.49; #11 HY 18 hr (mRNA expression level) (cell type #11, hypoxia 18 hr): 1.93; #11 NO (mRNA expression level) (cell type #11, normoxia): 1.79; HIGHEST FOLD CHANGE IN HYPOXIA (hr hypoxia + cell type) (hypoxia/normoxia induction ratio, 6 hr hepatocyte): 2.73 (6 hr hepatocyte) fold
B2	0.65	0.67	1.21	2.21	2.48	2.42	3.05	2.59	2.35	0.76	0.68	1.10	0.91	0.68	0.22	0.28	HIGHEST FOLD CHANGE IN HYPOXIA (hr hypoxia + cell type) (DOWN, 18 hr adipocyte): 1.85 DOWN (18 hr adipocyte) ^ fold
